In publication PMC8720280:

Legend:
Test in all cases: BLI
[1] = target: SGE:AAA (135-137) NS Mut rDR5
[2] = target: KYGQ:AAGA (45-48) Mut rDR5
[3] = target: Lexatumumab; settings: Loading ID Biot-Lexa
[4] = target: Tiga
[5] = target: KMTR2
[6] = target: AMG655; settings: fit R^2 0.9925

Tigatuzumab
koff [1]: 0.000625 s⁻¹
koff [2]: 0.000153 s⁻¹

WT DR5 recombinant protein (IgG4-Fc tagged extracellular domain of human DR5) (from UniProt O14763-1) C103_R104insA
Kd ([3]; fit R^2 0.8916): 266 pM
kon ([3]; fit R^2 0.8916): 2.14e+06 M⁻¹ s⁻¹

WT DR5 recombinant protein (IgG4-Fc tagged extracellular domain of human DR5) (from UniProt O14763-1) C103_R104insS
Kd ([3]; fit R^2 0.8774): 215 pM
kon ([3]; fit R^2 0.8774): 1.5e+06 M⁻¹ s⁻¹

WT DR5 recombinant protein (IgG4-Fc tagged extracellular domain of human DR5) (from UniProt O14763-1) E98A; M99A
kon ([4]; fit R^2 0.9770): 9.34e+06 M⁻¹ s⁻¹

WT DR5 recombinant protein (IgG4-Fc tagged extracellular domain of human DR5) (from UniProt O14763-1) K45A; Y46A; Q48A
koff ([5]; fit R^2 0.9806): 1e-07 s⁻¹
kon ([5]; fit R^2 0.9806): 750000 M⁻¹ s⁻¹
koff ([4]; fit R^2 0.9860): 0.000153 s⁻¹
kon ([4]; fit R^2 0.9860): 1.72e+06 M⁻¹ s⁻¹

WT DR5 recombinant protein (IgG4-Fc tagged extracellular domain of human DR5) (from UniProt O14763-1) S135A; G136A; E137A
koff ([5]; fit R^2 0.9964): 2.01e-05 s⁻¹
kon ([5]; fit R^2 0.9964): 791000 M⁻¹ s⁻¹
koff [6]: 6.82e-05 s⁻¹
kon [6]: 539000 M⁻¹ s⁻¹
koff ([4]; fit R^2 0.9793): 0.000625 s⁻¹
kon ([4]; fit R^2 0.9793): 742000 M⁻¹ s⁻¹
